Assay results reported in the DeepSol protein solubility set.

Assay: soluble on expression in E. coli; label from the status in PepcDB or PDB records
In the case of “GYRALSFPDPLDSQPVQAIAFYPSTGSEHLSIIHGYRVEASEDAPIAMGRFPLLLLSHGNTGTPLALHDLATSLARQGFVVVAVVHPGDNDRDHSRLGSLSNLYGRPLQISEAISTALLDPVLAPYLNARQVGVIGYSAGGETALILAGAQPDLQRLRQYCLERPTDRDACKTQGELVADRDDLHAQADPRVGALMLMAPLSLMFGRHTLGDVHVPVLMYAGDDDQLLALDRNAEALARKLPQAPDYKLLAGAGHFVFMAPCSDEQREAAPLL”, the “soluble on expression in E. coli” value is reported as “not soluble”.
With “GYTLWNDQIVKDEEVKIDKEDRGYQFGDGVYEVVKVYNGEMFTVNEHIDRLYASAEKIRITIPYTKDKFHQLLHELVEKNELNTGHIYFQVTRGTSPRAHQFPENTVKPVIIGYTKENPRPLENLEKGVKATFVEDIRWLRCDIKSLNLLGAVLAKQEAHEKGCYEAILHRNNTVTEGSSSNVFGIKDGILYTHPANNMIAKGITRDVVIACANEINMPVKEIPFTTHEALKMDELFVTSTTSEITPVIEIDGKLIRDGKVGEWTRKLQKQFETKIPKPLHI” the “soluble on expression in E. coli” value was “soluble”.
For “HDYLMKGNLSRLVPAIERELREADERRRRRQAEEAMHAQFNQISTIFDSLNALVYVVDMNSYELLYLNKFGAQLFGEAWEGRTCHDVLHGGRSTPCDFCTNDKLIMDGKALPPYIWEYQNSISSRWYQCIDKAIRWTD”, the “soluble on expression in E. coli” value was “not soluble”.
With “HEEHLMVPKGVEVYEINGPYFFGIATKFEEIMSELGDRPKVRIVRMRKVPFIDSTGIHNLTNLCEMSKKENIQIVLSGVNEKVHQILEKSGFNELLGKENICPNINVALEKAK” the “soluble on expression in E. coli” value was “not soluble”.
In the case of “HETLTSPPLREGRYIMAVTGCGPVEGVKEDGAFAFRGIPYAKPPVDRLRWKPAELIDDINMCWNDTLQTHNSSVVCTQRLGNGTTVGDEDCLYLDVVTPHVRYNNPLPVVVLIGAESLAGPSPGILRPSARYSRSHDVIFVRPNFRLGVFGFLALDALTKEAHPPTSGNYALTDIIAVLNWIKLNIVHFGGDPQSVTLLGHRAGATLVTLLVNSQKVKGLYTRAWASSGSAILPGKPLSESGKQNEQLMATLECADIQCLREASSERLWAATPDTWLHFPVDLPQPQEANASGSRHEWLVLDGDVVFEHPSDTWKREQANDKPVLVMGATAHEAHTEKLRELHANWTREEVRAYLENSQIGALGLTDEVIEKYNASSYASLVSIISDIRSVCPLLTNARQQPSVPFYVVTQGEGPDQLATVDADVQAILGRYEPHTVEQRRFVSAMQQLFYYYVSHGTVQSFVQNRRVINVGQDAQPEEDYLPCNYWISKDIVPRYARVD”, the “soluble on expression in E. coli” value is reported as “soluble”.
For “HGNQLTAYTLRLGDNCLVLSQRLGEWCGHAPELEIDLALANIGLDLLGQARNFLSYAAELAGEGDEDTLAFTRDERQFSNLLLVEQPNGNFADTIARQYFIDAWHVALFTRLMESRDPQLAAISAKAIKEARYHLRFSRGWLERLGNGTDVSGQKMQQAINKLWRFTAELFDADEIDIALSEEGIAVDPRTLRAAWEAEVFAGINEATLNVPQEQAYRTGGKKGLHTEHLGPMLAEMQYLQRVLPGQQW”, the “soluble on expression in E. coli” value was “soluble”.
With “HGSYIDITIDLKHYNGSVFDLRLSDYHPVKKVIDIAWQAQSVSMPPREGHWIRVVNKDKVFSGECKLSDCGITNGDRLEIL” the “soluble on expression in E. coli” value was “soluble”.
With “HHDITKVDTSGASEITARQDKLTLQGVDASHKLAEHDLVRMNKYKELITRVGQKHGLDPAIIAGIISRESRAGSALDHGWGDHGKGFGLMQVDKRYHKIVGAWDSEKHISQGTEILIEFIRRIQAKFPVWPKEHQLKGGISAYNAGDKNVRTYERMDVGTTGGDYSNDVVARSQWFKSQGY” the “soluble on expression in E. coli” value was “soluble”.
With “HHHHHHDYDIPTTENLYFQGAITLLTLIKTAEHWARQDIRTIEDSKLRALLTLCAVMTRKFSKSQLSLLCETHLRREGLGQDQAEPVLEVYQRLHSDKGGSFEAALWQQWDRQSLIMFITAFLNIALQLPCESSAVVVSGLRTLVPQSDNEE” the “soluble on expression in E. coli” value was “soluble”.
With “HHHHHHMVRAIDEDCSQYEPIPGSQKAALGYNILTQEDAQSVYDASYYGGQCETVYNGEWRELRYDSTCERLYYGDDEKYFRKPYNFLKYHFEALADTGISSEFYDNANDLLSKVKKDKSDSFGVTIGIGPAGSPLLVGVGVSHSQDTSFLNELNKYNEKKFIFTRIFTKVQTAHFKMRKDDIMLDEGMLQSLMELPDQYNYGMYAKFINDYGTHYITSGSMGGIYEYILVIDKAKMESLGITSRDITTCFGGSLGIQYEDKINVGGGLSGDHCKKFGGGKTERARKAMAVEDIISRVRGGSSGWSGGLAQNRSTITYRSWGRSLKYNPVVIDFEMQPIHEVLRHTSLGPLEAKRQNLRRALDQYLM” the “soluble on expression in E. coli” value was “soluble”.
With “HHHMFNAKYVAEATGNFITVMDALKLNYNAKDQLHPLLAELLISINRVTRDDFENRSKLIDWIVRINKLSIGDTLTETQIRELLFDLELAYKSFYALLD” the “soluble on expression in E. coli” value was “soluble”.
In the case of “HMDIRTITSSDYEMVTSVLNEWWGGRQLKEKLPRLFFEHFQDTSFITSEHNSMTGFLIGFQSQSDPETAYIHFSGVHPDFRKMQIGKQLYDVFIETVKQRGCTRVKCVTSPVNKVSIAYHTKLGFDIEKGTKTVNGISVFANYDGPGQDRVLFVKNI”, the “soluble on expression in E. coli” value is reported as “soluble”.
For “HMLLTTSRKPSQRTRSFSQRLSRIMGWRYINRGKMSLRDVLIEARGPVAVVSERHGNPARITFLDERGGERGYILFNPSFEMKKPELADKAVRVSSCPPGSEGLCNLMGLEVDESSSRDAWSIRTDEEYAWVMELMDARGTPAGFKLLIRDFRVGE”, the “soluble on expression in E. coli” value was “soluble”.
For “HRYGDEIDALVEAFNRMRESLAVAYQQQQGMLQAVRESEALLRAIARRIPNGGVWVVDTDGRYIMFEGSLVESLGLSGQEALGRMPGDLFGEPLADRLVGCYRLALAGGTLSEEIEYRERVLWIQFAPLEDEHGAVMAAVALGID”, the “soluble on expression in E. coli” value was “not soluble”.
With “HTHWGYTGHDSPESWGNLSEEFRLCSTGKNQSPVNITETVSGKLPAIKVNYKPSMVDVENNGHTIQVNYPEGGNTLTVNGRTYTLKQFHFHVPSENQIKGRTFPMEAHFVHLDENKQPLVLAVLYEAGKTNGRLSSIWNVMPMTAGKVKLNQPFDASTLLPKRLKYYRFAGSLTTPPCTEGVSWLVLKTYDHIDQAQAEKFTRAVGSENNRPVQPLNARVVIE” the “soluble on expression in E. coli” value was “soluble”.
With “HYTSPTVIQAIYNAVEQMDFTPGTVLEPSMGIGNFFGMLPEKLAAAKLYGVELDDLTGRIARQLYQKADITVDGFERTDHPDDFFDLAVGNVPFGSYQVHDKRYDRQNLMIHDYFITKTLDKVRPGGIVAFITTKGTMDKKNSKAREALAQKADLLGAVRLPSNAFKANAGTEVTTDILFFQKRDRIPEKLPEWVEVGQTEDGIPLNRYFLDHPEMVLGTM” the “soluble on expression in E. coli” value was “not soluble”.
For “IAPTAQKLSKIYGVRSSIIIGQAALDSHFGSTLLASKYHNLFSIEASPGQGAVRLKSHEYKNGRWQEVTNRYLVYESWKESLYDYMAILHGNKIWDKALYTTMMTSSGYKTVARALQAAGFNSDPNYADKLIAVIEENNLTDYDK”, the “soluble on expression in E. coli” value was “not soluble”.
In the case of “IGDWGYSVSANLTTISNKVKSLVQDGYSIIAGDKSQSYTMAGYPIGYFYGYKVAGVYQNQAEIDASPVNTLATVTPGDLKFADVNGDGKITPDDRTKIGDPTPDVTYGISLGLSYKNWELSMEMMGQGGNQIYRTWDNYNWAQFNYMEQRLDRWHGEGTSNTQPLLNTKHAINSENSEYFIEDGSFFRIRNLQLAYSFDKTLLSKIRMQALKVYVNIQNLKTWKHNTGYTPEIGGSAIAFGVDNGTYPVPAVYTFGINLTF”, the “soluble on expression in E. coli” value is reported as “not soluble”.
In the case of “IGNTLHNYSVLADSKSVLLGVMSKNIQVGSFAYRYLCRTSSRMNLNHLQTVDGPIGRCYTLISQDGERTFAINEGHMNQLLPESIPEEVFEKASALVVSSYLMRGKEEDPMPKAVQRAIDFAKKHDVPVVLTLGTKYVIEGNAEWWQEYIRENVSVVAMNEEEGAALTGEHDPLAAADKALEWVDLVLCTAGPNGLYMAGYTDEKVKRETTHDILESSIEEFNKFEFSRAMRKEDCVNPMKVYSHIGPYLGGPLEIKNTNGAGDAALSALLHDMAANSFHQKEVPTSEKHEVRCLTYSSLSQICKYANRVSYEVLTQHSPRLSRALPEREDSLEETYWDR”, the “soluble on expression in E. coli” value is reported as “not soluble”.
With “IKQMLLDWCRAKTRGYEHVDIQNFSSSWSDGMAFCALVHNFFPEAFDYGQLSPQNRRQNFEVAFSSAETHADCPQLLDTEDMVRLREPDWKCVYTYIQEFYRCLVQKGLVKTKKS” the “soluble on expression in E. coli” value was “soluble”.
